Results published in patent US20240358834A1 (University of Pennsylvania, published 2024).

B1: scFv 37 (scFv)
scFv: SSVLTQPPSVSVSLGQTATISCSGESLNDYYAQWFQQKAGQVPVLVIYRDTERPSGIPDRFSGSSSGNTHTLTISGARAEDEADYYCESEVSAGGAVFGEGTHLTVLGGGSSRSSSSGGGGSGGGGEVQLVETGGDLVKPGGSLRLSCVASGFTLRDYSMTWVRQTPEKGLQLVAGISTGGSTTYYIDAVKGRFTISRDNAKNTVYLQMNSLRAEDTAMYHCTTTALGYWGQGTLVTVSSASTTTPSVTSGQAGQHHHHHHGAYPYDVPDYAS
notes: Canine scFv (VL-linker-VH); also called P3-27
B2: scFv 5 (scFv)
scFv: QPVLTQPPSVSGSLGQRVTISCSGSTNTIGVVGANWYQQLPGKSPKLLVYSDGVRPSGVPDRFSGSRSANSDTLTITGLQAEDEADYYCQSFDSTHNAIVFGGGTHLTVLGGGSSRSSSSGGGGSGGGGEVQLVETGGDLVKPAGSLRLSCAASGFPFSGYSMTWVRQAPEKGLQLVAGINSDGSHTYYTDDVKGRFTISRDNTKYILYLQMNSLRAEDTAMYYCGSHSWGNFHYWGQGTLVTVSSESPSPPNLTSGQAGQHHHHHHGAYPYDVPDYAS
notes: Canine scFv (VL-linker-VH); also called scFv_05; P3-14
B3: scFv 38 (scFv)
scFv: SSVLTQPPSVSVSLGQTATISCSGESLSEYYAQWFQQKAGQAPVLVIYKDTERPSGIPDRFSGSSSGNTHTLTISGARAEDEADYYCASADSSAIPVFGGGTHLTVLGGGSSRSSSSGGGGSGGGGEVQLVESGGDLVKPGGSLRLSCVASGFNFGNYAVSWVRQAPGKGLQWVAGISNDGTITGYTDVVEGRFIISRDNAKNTLYLQMNSLRAEDMAIYYCVAGGFLDYWGQGTLVTVSSASTTAPSVTSGQAGQHHHHHHGAYPYDVPDYAS
notes: Canine scFv (VL-linker-VH); also called P3-17
B4: scFv 43 (scFv)
scFv: DIVMTQNPLSLAVTPGELATISCRASQSLLHSDGKSYLNWYLQKPGQTPRPLIYEASRRFSGVSDRFNGSGSGTDFTLKISRVEAEDVGVYYCQQGLHFPPTFGAGTKVELKGGSSRSSSSGGGGSGGGGEVQLVESGGDLVKPGGSLRLSCAASGFTFTDYDMSWVRQAPGKGLQWVAAISYDGSSTYYTDAVKGRFTISRDNARNTLYLQMSSLRAEDTAMYYCVVSNMNLWGHGTSVFVSSASTTAPSVTSGQAGQHHHHHHGAYPYDVPDYAS
notes: Canine scFv (VL-linker-VH); also called P3-02; P3-19
B5: scFv 42 (scFv)
scFv: QSVLTQPTSVSGSLGQRVTISCSGSTNDIGIIGAAWYQQLPGKAPKLLLYSNKNRPSGVPDRFSGSNSGISATLTITGLQAEDEADYYCQSVDPALHTYVFGSGTQLTILGGGSSRSSSSGGGGSGGGGEVQLVEIGGDLVKPEGSLRLSCVVSGFTFSGYDMNWVRQAPGKGLQWVAYISSDGRRTVYTDAVKGRFTISRDNAKNTLYLQMNSLKSEDTAVYYCVKGGWLDFWGQGTLVTVSSESPSPPNLTSGQAGQHHHHHHGAYPYDVPDYAS
notes: Canine scFv (VL-linker-VH); also called P3-13
B6: scFv 40 (scFv)
scFv: QSVLTQPPSVSGSLGQKVTISCTGSSSSVGTHYVGWYQIPPGIGPRTVIYNNDYRPSGVPDRFSGSKSGNSATLTISGLQAEDEADYYCSSWDDSLGAYVLGSGTQLTILGGGSSRSSSSGGGGSGGGGELTLQESGPGLVKPSQTLSLTCAVSGGSVIRGYYWTWIRQRPGRGLEWMGYWAGSTDYNPAFQGRIFITAGTAKNQFSLEMTSMTTDDTAIYYCVGSLRGGWLFDNWGQGTLVTVSSASTTAPSVTSGQAGQHHHHHHGAYPYDVPDYAS
notes: Canine scFv (VL-linker-VH); also called P3-59B
B7: scFv 4 (scFv)
scFv: QSVLNQPPSVSGALGQTVTISCSGSHTNIGSGFDVQWYQQLPGKSPQTIIYANINRPSGVPARFSGSKSGSTATLTITGVQAEDEADYYCQSYDDNFDYVFGSGTQLTVLGGGSSRSSSSGGGGSGGGGEEQLVEFGGDLVKPGGSLRLSCVVSGFDFSRYGMSWVRQSPGKGLQWVADISYRGTTFYADDVKGRFTVSRDSAKNTLYLEMTSLTVEDTAVYYCANSANWYVSPFDHWGQGTLVTVSSASTTAPSVTSGQAGQHHHHHHGAYPYDVPDYAS
notes: Canine scFv (VL-linker-VH); also called scFv_04; P3-06
B8: scFv 9 (scFv)
scFv: QPVLTQPPSVSAALGQRVTLSCTGSKTNIGSGYDVQWYQQFPGKSPKTIIYGNSNRFSGVPARFSGSKSGSIATLTITGIQAEDEADYYCQSFDDNVDGYVFGSGTQLTILGGGSSRSSSSGGGGSGGGGEVQLVESGGDLVKPGGSLRLSCVASGFTFSSDSIHWVRQAPGKGLQWVAYINSGGSTTYYADAVKGRFTISRDNARNTVYLKMNSLRAEDTAVYYCAKDSGFGSWYLESWGQGTLVTVSPASTTAPSVTSGQAGQHHHHHHGAYPYDVPDYAS
notes: Canine scFv (VL-linker-VH); also called scFv_09; P3-41
B9: scFv 41 (scFv)
scFv: QPVLTQPPSVSVSLGQTATISCSGESLSKYYAQWFQQKAGQAPVLVIYKDTERPSGIPDRFSGSSSGNTHTLTISGARAEDEADYYCESAVSTETVVFGGGTHLTVLGGGSSRSSSSGGGGSGGGGEVQLVETGGDLVMPAGSLRLSCVASGFTFSSSVMSWVRQAPGKGLEWVAGINGGGSFAAYGDAVKGRFTISRDNAKNTLYLQMNSLRAEDTAMYYCVGGGYMDFWGPGTSLFVSSESPSPPNLTSGQAGQHHHHHHGAYPYDVPDYAS
notes: Canine scFv (VL-linker-VH); also called P3-08A; P3-08B
B10: scFv 7 (scFv)
scFv: SYELTQPPSMSAALGQRVTISCTGSNTNIGSGYDVQWYQQVPGKSPTPLIYGNTNRPSGVPVRFSGSKSGNTATLTITGIQAEDEADYYCQSYDDNFDGHHVFGSGTQLTVLGGGSSRSSSSGGGGSGGGGEVQLVESGGDLVKPAGSLRLSCVASGFTFSNYGMNWVRQAPGKGLQWVAGINSGGSTTTYADVVKGRFTISRDNAKNTLYLQMNSLGAEDTAVYYCARVDYSSSWLVDYWGQGTLVTVSSASTTAPSVTSGQAGQHHHHHHGAYPYDVPDYAS
notes: Canine scFv (VL-linker-VH); also called scFv_07; P3-47
B11: scFv 8 (scFv)
scFv: QSVLTQPASVSGSLGQKVTISCTGSRSNIGANYVGWYQQVPGIGPRTVIFGYNYRPSGVPDRFSSSKSGNSATLTISGLQAEDEAEYYCSSWDDSLRGTVFGSGTQLTVLGGGSSRSSSSGDGGSGGGGEVQLVESGGDLVKPGESLRLSCVASGFTFSSYGMSWVRQSPGKGLQWVADISYGGGTYYADAVKGRFTISRDNARNTVYLQMNSLRAEDTAVYYCASQWGDWGHFEYWGQGTLVTVSSASTTAPSVTSGQAGQHHHHHHGAYPYDVPDYAS
notes: Canine scFv (VL-linker-VH); also called scFv_08; P3-16
B12: scFv 39 (scFv)
scFv: QSVLTQPPSVSGSPGQRVTISCSGTTKNIGIVGASWYQQLPGKAPKLLVHSDGFRPSGVPDRFSASNSGDSDILTITGLQAEDEADYYCQSFDTTLDAHVFGSGTQLTVLGGGSSRSSSSGGGGSGGGGEVPLVESGGDLVKPGGSLRLSCVASGFTFSSYGMSWVRQSPGKGLQWVAGITYDGSNTYYTDTVRGRFTISRDNARNTVYLQMNSLRAEDTAVYYCVASPLYGTYGFDYWGHGTSVFVSSASTTAPSVTSGQAGQHHHHHHGAYPYDVPDYAS
notes: Canine scFv (VL-linker-VH); also called P3-29

Biological target: T1, human CD19 protein with a biotinylated AviTag (Acrobiosystems) (human, UniProt P15391 20-291, biotinylated AviTag)
T1 construct: Captured on streptavidin-coated microplate wells; also called biotinylated-AviTag-CD19; hCD19; not shown: AviTag
T1 sequence (looked up): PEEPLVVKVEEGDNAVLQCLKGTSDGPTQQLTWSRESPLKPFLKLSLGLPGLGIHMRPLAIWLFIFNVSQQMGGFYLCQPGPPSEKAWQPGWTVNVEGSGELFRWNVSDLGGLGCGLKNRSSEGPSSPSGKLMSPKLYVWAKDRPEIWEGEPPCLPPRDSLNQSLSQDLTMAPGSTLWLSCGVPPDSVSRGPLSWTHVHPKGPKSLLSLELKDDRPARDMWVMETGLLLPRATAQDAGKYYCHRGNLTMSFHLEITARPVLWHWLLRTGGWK
Assay: phage ELISA, biotinylated AviTag CD19 on streptavidin wells; signal ratio to FMC63 standard
Source text: To identify unique human CD19-binding monoclonal scFv from the panned libraries, individual phage antibody clones were expanded, assessed for binding to CD19 by ELISA, and subjected to nucleotide sequencing to identify those clones that were unique. A total of 84 scFvs were randomly selected from the panned libraries (70 from P3 and 14 from P4).

Binder	ELISA hCD19 (ratio FMC63)
B1	0.1 ratio to FMC63
B2	0.48 ratio to FMC63
B3	0.64 ratio to FMC63
B4	0.57 ratio to FMC63
B5	0.14 ratio to FMC63
B6	0.14 ratio to FMC63
B7	0.77 ratio to FMC63
B8	0.71 ratio to FMC63
B9	0.47 ratio to FMC63
B10	0.83 ratio to FMC63
B11	0.41 ratio to FMC63
B12	0.19 ratio to FMC63
